The test system of series [1] is PlmCasX dH2 Helical-II domain deleted. Kind of series: cleavage_in_vitro. The note with it: NTS; 37 C, Mg2+; TS value 1.741e-5; unit assumed.
Series [2] has as its system DpbCasX dH2 Helical-II domain deleted. Kind of series: cleavage_in_vitro. To be noted: NTS; 37 C, Mg2+; TS value 0.008223; unit assumed.
A further series has as its target T1, DpbCasX (DpbCasXv1).
T1 chain: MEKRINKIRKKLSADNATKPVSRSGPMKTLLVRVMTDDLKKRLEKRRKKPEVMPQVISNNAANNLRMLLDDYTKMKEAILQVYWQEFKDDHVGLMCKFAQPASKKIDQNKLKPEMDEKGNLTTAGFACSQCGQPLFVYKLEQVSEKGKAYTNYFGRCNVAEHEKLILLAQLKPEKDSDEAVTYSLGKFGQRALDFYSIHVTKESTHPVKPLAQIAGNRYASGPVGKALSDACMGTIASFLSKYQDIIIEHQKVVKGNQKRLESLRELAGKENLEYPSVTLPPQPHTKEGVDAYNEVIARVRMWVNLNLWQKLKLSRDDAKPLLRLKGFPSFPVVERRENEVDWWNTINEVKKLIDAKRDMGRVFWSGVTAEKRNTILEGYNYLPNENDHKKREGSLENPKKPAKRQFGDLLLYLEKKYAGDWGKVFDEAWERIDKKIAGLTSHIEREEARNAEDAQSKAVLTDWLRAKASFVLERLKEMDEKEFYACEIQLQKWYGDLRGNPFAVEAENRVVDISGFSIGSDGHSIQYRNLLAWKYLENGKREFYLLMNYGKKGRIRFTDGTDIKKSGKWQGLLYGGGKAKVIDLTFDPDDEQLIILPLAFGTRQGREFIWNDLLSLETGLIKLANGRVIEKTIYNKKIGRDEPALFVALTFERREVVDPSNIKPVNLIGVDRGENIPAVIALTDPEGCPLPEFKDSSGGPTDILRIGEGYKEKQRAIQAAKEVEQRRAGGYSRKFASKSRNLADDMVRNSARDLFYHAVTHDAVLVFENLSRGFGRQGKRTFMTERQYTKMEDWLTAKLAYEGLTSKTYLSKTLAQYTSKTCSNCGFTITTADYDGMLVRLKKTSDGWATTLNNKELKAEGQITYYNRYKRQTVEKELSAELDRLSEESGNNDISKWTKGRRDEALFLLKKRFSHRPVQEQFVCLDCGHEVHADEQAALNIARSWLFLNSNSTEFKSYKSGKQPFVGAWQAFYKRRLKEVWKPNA
Kind of series: cleavage_in_vitro; NTS; 37 C, Mg2+. To be noted: label: 5'-32P. An excerpt: (§1) FIG. 14A-14G. Updated design of the CasX sgRNA. […] The coverage axis denotes the number of sequencing reads. The abscissa denotes the genome sequence of the hypothetical tracrRNA region. (B) The structural details for sgRNAv1. The additional U at the 5′ end was hypothetically modeled in the top panel. The structural details of the G30-C54 base-paring region in sgRNAv1 are also shown in the bottom panel. […] The sgRNAv1-2 architecture is modeled based on sgRNAv1. The potential base-pairing between the additional 5′ U and A29 is labeled with a dashed line. The Helical-II domain was modeled to indicate the interaction interface with the sgRNA scaffold stem. (D) In vitro dsDNA cleavage activity comparison among different sgRNAs by DpbCasX and PlmCasX. The NTS was ³²P labeled on the 5′ end. (E) Cleavage kinetics analysis was based on the NTS band density from the cleaved fractions compared to the input NTS band density at the reaction time of 0 min (n=3, mean±s.d.) (DpbCasX-v2 from FIG. 15A). The fractions were collected from 0 min to 6 hrs. […] (F) The hypothetical secondary architectures of sgRNAv2 designs. […] The fractions were collected at 0 min, 10 mins, 20 mins, 40 mins, 1 hr, 2 hrs, 4 hrs and 6 hrs, respectively. OC/N indicates the open-circle or nicked plasmids, L indicates the linearized plasmids and SC indicates the super-coiled plasmids (n=3, representative gel shown).

A further series deals with T2, PlmCasX (PlmCasXv1).
T2 chain: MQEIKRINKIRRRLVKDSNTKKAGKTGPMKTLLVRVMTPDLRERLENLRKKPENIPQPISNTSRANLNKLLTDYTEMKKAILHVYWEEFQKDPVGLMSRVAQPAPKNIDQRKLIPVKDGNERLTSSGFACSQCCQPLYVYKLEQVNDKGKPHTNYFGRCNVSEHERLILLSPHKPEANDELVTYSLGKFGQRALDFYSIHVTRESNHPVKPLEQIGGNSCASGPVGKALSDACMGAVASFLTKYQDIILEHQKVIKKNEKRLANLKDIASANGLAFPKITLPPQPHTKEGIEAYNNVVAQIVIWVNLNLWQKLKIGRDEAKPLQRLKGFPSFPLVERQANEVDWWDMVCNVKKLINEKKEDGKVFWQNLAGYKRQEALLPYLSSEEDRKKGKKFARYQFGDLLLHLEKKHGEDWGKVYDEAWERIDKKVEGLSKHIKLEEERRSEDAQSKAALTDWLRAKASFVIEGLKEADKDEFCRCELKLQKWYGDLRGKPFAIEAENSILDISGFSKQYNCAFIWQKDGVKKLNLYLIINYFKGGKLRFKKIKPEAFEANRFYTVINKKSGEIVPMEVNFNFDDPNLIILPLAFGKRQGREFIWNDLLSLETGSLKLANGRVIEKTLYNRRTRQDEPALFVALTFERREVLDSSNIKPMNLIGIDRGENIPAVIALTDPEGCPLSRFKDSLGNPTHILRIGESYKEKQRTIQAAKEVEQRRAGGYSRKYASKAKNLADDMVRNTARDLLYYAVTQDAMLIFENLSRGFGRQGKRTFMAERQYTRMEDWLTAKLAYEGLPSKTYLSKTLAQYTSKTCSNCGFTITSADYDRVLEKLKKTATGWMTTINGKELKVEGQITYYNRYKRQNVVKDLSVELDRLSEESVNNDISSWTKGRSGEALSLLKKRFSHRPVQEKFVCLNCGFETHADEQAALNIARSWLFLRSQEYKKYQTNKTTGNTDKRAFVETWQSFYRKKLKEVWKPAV
Kind of series: cleavage_in_vitro; NTS; 37 C, Mg2+. To be noted: label: 5'-32P.
Description: as §1

Turning to “GGCGCGUUUAUUCCAUUACUUUGGAGCCAGUCCCAGCGACUAUGUCGUAUGGACGAAGCGCUUAUUUAUCGGAGAGAAACCGAUAAGUAAAACGCAUCAAAGUCCUGCAGCAGAAAAUCAAA / ATCGTTATACTTTGATTTTCTGCTGCAGGATGAAATCCCG / CGGGATTTCATCCTGCAGCAGAAAATCAAAGTATAACGAT [sgRNAv1 ; dsDNA target 40 bp]”, the activity worked out at 0.00268 min⁻¹ in series [1] and 0.00671 min⁻¹ in series [2].

B1: sgRNAv1-2 ; dsDNA target 40 bp (ssRNA ; dsDNA)
RNA: UGGCGCGUUUAUUCCAUUACUUUGGAGCCAGUCCCAGCGACUAUGUCGUAUGGACGAAGCGCUUAUUUAUCGGAGAGAAACCGAUAAGUAAAACGCAUCAAAGUCCUGCAGCAGAAAAUCAAAG
DNA 1: ATCGTTATACTTTGATTTTCTGCTGCAGGATGAAATCCCG
DNA 2: CGGGATTTCATCCTGCAGCAGAAAATCAAAGTATAACGAT
B1: in the series with DpbCasX (DpbCasXv1), the activity was 0.0109 k (unit not stated; min-1 inferred).

B2: sgRNAv2-2 ; dsDNA target 40 bp (ssRNA ; dsDNA)
RNA: UGGCGCUUUUAUCUCAUUACUUUGAGAGCCAUCACCAGCGACUAUGUCGUAUGGGUAAAGCGCUUAUUUAUCGGAGAAACCGAUAAAUAAGAAGCAUCAAAGUCCUGCAGCAGAAAAUCAAAG
DNA 1: ATCGTTATACTTTGATTTTCTGCTGCAGGATGAAATCCCG
DNA 2: CGGGATTTCATCCTGCAGCAGAAAATCAAAGTATAACGAT
On to B2, for which the activity with PlmCasX (PlmCasXv1) was 0.00919 k (unit not stated; min-1 inferred).

B3: sgRNAv2-3 ; dsDNA target 40 bp (ssRNA ; dsDNA)
RNA: UACUGGCGCUUUUAUCUCAUUACUUUGAGAGCCAUCACCAGCGACUAUGUCGUAUGGGUAAAGCGCUUAUUUAUCGGAGAAACCGAUAAAUAAGAAGCAUCAAAGUCCUGCAGCAGAAAAUCAAAG
DNA 1: ATCGTTATACTTTGATTTTCTGCTGCAGGATGAAATCCCG
DNA 2: CGGGATTTCATCCTGCAGCAGAAAATCAAAGTATAACGAT
As for B3, the activity with PlmCasX (PlmCasXv1) is 0.0217 k (unit not stated; min-1 inferred).

The record behind these values is patent publication US20230407276, “CRISPR-CAS EFFECTOR POLYPEPTIDES AND METHODS OF USE THEREOF” (The Regents of the University of California, published 2023).
